The values below come from patent US20230374088A1 (GENERAL HOSPITAL, published 2023).

The target of one experiment is T1, GST-Kif7-CC (460-600aa) (human, UniProt Q2M1P5 460-600).
T1 construct: held on the BLI sensor through the GST tag; also called Kif7 coiled-coil domain; coiled-coil dimerization domain fragment of Kif7; not shown: N-terminal GST tag (HRV protease cleavable, modified pGEX vector)
T1 sequence: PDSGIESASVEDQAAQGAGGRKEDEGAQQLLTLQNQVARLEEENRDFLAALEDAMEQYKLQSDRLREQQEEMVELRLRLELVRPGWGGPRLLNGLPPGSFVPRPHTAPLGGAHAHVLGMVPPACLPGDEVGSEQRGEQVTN
Put plainly: BLI association step, GST-Kif7-CC on the sensor, soluble truncation at 125 nM [panel C]. Here is the method:
Equilibrium dissociation constants Kd (shown in parenthesis) were determined by fitting complete binding curves to Hill equation (See FIG. 10C). See also FIGS. 10A, 10B & 10C. Data is representative trace of a minimum of three repeats.
BLI experiments were performed in an Octet Red 96 instrument (ForteBio). To quantify Kif7-Gli2 binding, Experiments were performed in an assay buffer containing 40 mM TRIS pH7.3, 40 mM KCl, 40 μM ATP 1 mM MgCl₂, 0.12% tween and 0.5 mM TCEP. In the simplest assay, dimeric GST-Kif7-CC at a concentration of 120 nM is immobilized on an anti-GST biosensor chip. Unbound Kif7 is washed away with buffer, and the chips are then dipped into buffer with a range of Gli2-ZF concentrations from 0-1 μM to allow for association of the two proteins. After 300 seconds, they are then moved back into a well with just buffer to allow dissociation for 400 seconds. The equilibrium response of each sensor from three independent repeats at each Gli2 concentration were normalized and plotted against Gli2 concentration and fitted with a Hill function to obtain a Kₜ. […] The assays were also performed with HIS-tagged Kif7-DM and the Kif7-Kif27 chimeric proteins, requiring the use of an anti-penta-HIS biosensor chip, and referencing sensors to account for non-specific binding of Gli2 to the HIS sensor. A flipped assay, using HIS-tagged Gli2 on the sensor and a range of Kif7 concentrations in buffer, was also conducted.

Experiment [1] deals with T2, Gli2-ZF-SNAP (human, UniProt P10070 418-604, Alexa 647 dye on the SNAP tag in the TIRF assays).
T2 construct: Labeled with Alexa 647 for TIRF microscopy; used unlabeled (as far as told) for cryo-EM; also called Gli2-ZF-SNAP-Alexa 647; Gli2-ZF-Alexa 647; not shown: C-terminal SNAP tag
T2 sequence (looked up): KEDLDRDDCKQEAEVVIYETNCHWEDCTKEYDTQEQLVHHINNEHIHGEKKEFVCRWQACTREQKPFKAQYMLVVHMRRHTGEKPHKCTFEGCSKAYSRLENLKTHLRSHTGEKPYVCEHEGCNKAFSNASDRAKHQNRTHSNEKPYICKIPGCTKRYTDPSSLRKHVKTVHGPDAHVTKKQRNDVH
Put plainly: TIRF microscopy; 100 nM Gli2-ZF-SNAP-Alexa647 with 100 nM kinesin on microtubules. The source says: (§1) Briefly, fluorescently labeled (Rhodamine/HiLyte-647) and biotinylated microtubule seeds, polymerized with the non-hydrolyzable GTP analog GMPCPP, were immobilized on a glass coverslip through neutravidin-biotin linkages (FIG. 4A). GMPCPP was chosen as it mimics the GTP-form of tubulin present at microtubule ends (Jiang et al., Developmental cell, 49, 711-730. e8 2019). […] A Gli2 control was used to measure non-specific binding of Gli2-ZF to microtubules. Single molecule photobleaching of purified Kif7-DM confirmed that it is a dimer (FIGS. 11A-D).
To address which of the two Gli-interaction sites of Kif7 plays a role in modulating Kif7 microtubule binding, we generated two chimeric proteins where we swapped either the motor and neck-linker (M) or the coiled-coil (CC) domains of Kif7 and Kif27 (Kif7M-Kif27CC and Kif27M-Kif7CC) (FIG. 5E). […] The binding affinity for each of the two Gli interaction sites on Kif7-DM could be determined using BLI (FIG. 12H). We compared the two chimeras to Kif7-DM in TIRF microscopy-based microtubule binding assay. […] Next, we compared how the microtubule binding of the chimeras were regulated by Gli with respect to Kif7-DM.

Experiment [2] addresses T3, GMPCPP-stabilized microtubules (porcine, UniProt P02554 1-445).
T3 construct: Polymer of tubulin heterodimers; in TIRF partly labeled with X-rhodamine/HiLyte 647 and biotin; also called MT; GMPCPP-microtubule lattice
Put plainly: TIRF microscopy, GFP intensity on microtubules, no Gli2-ZF.

A further experiment has as its target T4, GST-Kif7-CC-GFP (human, UniProt Q2M1P5 460-600).
T4 construct: also called GST-tagged Kif7-CC-GFP; not shown: N-terminal GST tag; GFP tag, C-terminal by the name
T4 sequence: T1 sequence
Put plainly: SDS-PAGE and in-gel GFP fluorescence intensity of the size exclusion fraction holding the Kif7-CC-GFP:Gli2-ZF-GFP complex; confirmed by quantitative anti-GFP western blot. Here is the method:
To determine the stoichiometry of the complex (whether one Kif7-CC dimer bind one or two molecules of monomeric Gli2-ZF), we used fluorescence intensity analyses. […] The complex was analyzed by two methods. […] Second, quantitative western blot with fluorescently labeled anti-GFP antibody and densitometric analysis independently confirmed the stoichiometry of the complex (FIG. 8F).
The Kif7-CC and Kif7-DM proteins were not amenable to dynamic light scattering analysis and so in order to determine the stoichiometry of the Kif7-Gli2 complexes, we purified GFP-tagged constructs of Kif7-DM, Kif7-CC, and Gli2-ZF. […] After incubation, 200 μL of this mix was injected into a Superdex 200 10/300 GL column. Fractions that contained complexed protein were determined by elution volume shift in the gel filtration chromatogram. Complex containing fractions were boiled and run in SDS-PAGE and quantified in two ways: (1) Scan of an unstained SDS-PAGE gel at 488 nm, and (2) Scan of a Western blot using a directly labeled […] anti-GFP antibody (Santa Cruz). Both methods were quantified using an Amersham™ Typhoon Scanner and ImageJ for intensity analysis.
(In general: Size exclusion chromatography separates by hydrodynamic size, large species first.)

Experiment [3] has as its target T2, Gli2-ZF-SNAP. Put plainly: TIRF microscopy; 100 nM Kif7-DM-GFP and 100 nM Alexa-647 labeled Gli2-ZF-SNAP on GMPCPP microtubules. As to the method:
Rhodamine/HiLyte 647 labeled GMPCPP-stabilized microtubules (grey) were immobilized on a PEG-treated glass coverslip (yellow) via neutravidin-biotin linkages (blue & brown respectively). Kif7-DM-GFP (green), Gli2-ZF-SNAP-Alexa 647 (pink) and 1 mM ATP were subsequently added to examine binding of both proteins on microtubules. All proteins for TIRF microscopy assay were purified to >95% purity (FIGS. 11A & 11B). See also FIGS. 11C-11D.
as §1, with “To examine whether the Kif7-Gli interaction described above is sufficient for recruiting Gli to microtubules, we reconstituted Gli and Kif7 on microtubules and examined their activity using an in vitro TIRF microscopy assay. Briefly,” for “Briefly,”

Experiment [4] concerns the target T5, Gli2-ZF (418-604aa; zinc finger domain of Gli2) (human, UniProt P10070 418-604).
T5 construct: Expressed with an HRV-cleavable N-terminal 6xHis tag, cleaved 'if needed'; also called Gli-ZF
T5 sequence (looked up): T2 sequence (looked up)
Put plainly: BLI; GST-Kif7-SCC on sensor, Gli2-ZF as analyte, Hill fit. A general note: BLI is a label-free optical method that tracks binding on a fibre tip over time.

As a reminder, the Kd is a measure of binding affinity in units of concentration.

T3 sequence (P02554 whole entry): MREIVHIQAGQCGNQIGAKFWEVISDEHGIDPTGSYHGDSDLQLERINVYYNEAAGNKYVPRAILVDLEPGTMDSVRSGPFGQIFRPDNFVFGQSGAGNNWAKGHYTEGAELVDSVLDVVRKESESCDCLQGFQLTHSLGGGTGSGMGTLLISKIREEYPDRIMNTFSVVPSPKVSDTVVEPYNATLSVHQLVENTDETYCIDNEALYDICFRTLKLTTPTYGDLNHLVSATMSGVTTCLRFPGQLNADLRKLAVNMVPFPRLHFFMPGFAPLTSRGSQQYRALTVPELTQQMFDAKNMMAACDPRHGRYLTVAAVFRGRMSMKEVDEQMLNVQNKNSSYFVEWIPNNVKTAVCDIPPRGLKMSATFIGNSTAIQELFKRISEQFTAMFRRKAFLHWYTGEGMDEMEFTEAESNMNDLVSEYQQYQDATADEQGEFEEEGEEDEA

B1: ZF4-5 (530-604) (other, human, UniProt P10070 530-604, looked up)
Gli2 zinc-finger truncation: EKPYVCEHEGCNKAFSNASDRAKHQNRTHSNEKPYICKIPGCTKRYTDPSSLRKHVKTVHGPDAHVTKKQRNDVH
notes: residues 530-604; One of the three truncations of the group m9; also called Gli2-ZF truncation ZF4-5
With B1, the binding result in the experiment with GST-Kif7-CC (460-600aa) is on record as “no binding (tested: 125 nM)”.

B2: Kif7M-Kif27CC chimera (other, human)
chain: MGLEAQRLPGAEEAPVRVALRVRPLLPKELLHGHQSCLQVEPGLGRVTLGRDRHFGFHVVLAEDAGQEAVYQACVQPLLEAFFEGFNATVFAYGQTGSGKTYTMGEASVASLLEDEQGIVPRAMAEAFKLIDENDLLDCLVHVSYLEVYKEEFRDLLEVGTASRDIQLREDERGNVVLCGVKEVDVEGLDEVLSLLEMGNAARHTGATHLNHLSSRSHTVFTVTLEQRGRAPSRLPRPAPGQLLVSKFHFVDLAGSERVLKTGSTGERLKESIQINSSLLALGNVISALGDPQRRGSHIPYRDSKITRILKDSLGGNAKTVMIACVSPSSSDFDETLNTLNYASRAQNIRNRATVNWRPEAERPPEETASGARGPPRHRSETRIIHRGRRAPGPATASAAAAMRLGAECARYRACTDAAYSLLRELQAEPGLPGAAARKVRDWLCAVEGERSALSSASGPDSVLQLKRELKKCQCVLAADEVVFNQKELEVKELKNQVQMMVQENKGHAVSLKEAQKVNRLQNEKIIEQQLLVDQLSEELTKLNLSVTSSAKENCGDG
notes: range 475-570; not shown: HIS tag (used for BLI); GFP tag
Regarding B2, in the experiment with Gli2-ZF-SNAP [1], the “fold decrease in Gli recruitment on microtubules compared to Kif7-DM (Alexa-647 intensity per GFP intensity)” value was 3 fold. Also, in experiment [2], the “fold binding to microtubules compared to Kif7-DM (GFP intensity)” value is approximately 10 fold.

B3: Kif27M-Kif7CC chimera (other, human)
chain: MEEIPVKVAVRIRPLLCKEALHNHQVCVRVIPNSQQVIIGRDRVFTFDFVFGKNSTQDEVYNTCIKPLVLSLIEGYNATVFAYGQTGSGKTYTIGGGHIASVVEGQKGIIPRAIQEIFQSISEHPSIDFNVKVSYIEVYKEDLRDLLELETSMKDLHIREDEKGNTVIVGAKECHVESAGEVMSLLEMGNAARHTGTTQMNEHSSRSHAIFTISICQVHKNMEAAEDGSWYSPRHIVSKFHFVDLAGSERVTKTGNTGERFKESIQINSGLLALGNVISALGDPRRKSSHIPYRDAKITRLLKDSLGGSAKTVMITCVSPSSSNFDESLNSLKYANRARNIRNKPTVNFSPESDRIDEMEFEIKLLREALQSQQAGVSQTTQINREGSPDTNRIHSLEEQVAQLQGECLGYQCCVEEAFTFLVDLKDTVRLNEKQQHKLQEWFNMIQEVRKAVLTSFRGIGGTASLEEGPQHVTVPDSGIESASVEDQAAQGAGGRKEDEGAQQLLTLQNQVARLEEENRDFLAALEDAMEQYKLQSDRLREQQEEMVELRLRLELVRPGWGGPRLLNGLPPGSFVPRPHTAPLGGAHAHVLGMVPPACLPGDEVGSEQRGEQVTN
notes: range 1-475; not shown: HIS tag (used for BLI); GFP tag
As to B3, in the experiment with Gli2-ZF-SNAP [1], the “fold decrease in Gli recruitment on microtubules compared to Kif7-DM (Alexa-647 intensity per GFP intensity)” value stood at 2 fold. Besides, in experiment [2], the “fold binding to microtubules compared to Kif7-DM (GFP intensity)” value is approximately 3 fold.

B4: Gli2-ZF-GFP (other, human, UniProt P10070 418-604, looked up)
chain: T2 sequence (looked up)
notes: HRV-cleavable N-terminal 6xHis tag in the vector; not shown: C-terminal GFP tag
With B4, in the experiment with GST-Kif7-CC-GFP, the stoichiometry of interaction was 0.5 Gli2-ZF molecules per Kif7-CC chain (1:2, one Gli2-ZF monomer per Kif7-CC dimer).

B5: Kif7-DM-GFP (1-543aa) (other)
chain: MGLEAQRLPGAEEAPVRVALRVRPLLPKELLHGHQSCLQVEPGLGRVTLGRDRHFGFHVVLAEDAGQEAVYQACVQPLLEAFFEGFNATVFAYGQTGSGKTYTMGEASVASLLEDEQGIVPRAMAEAFKLIDENDLLDCLVHVSYLEVYKEEFRDLLEVGTASRDIQLREDERGNVVLCGVKEVDVEGLDEVLSLLEMGNAARHTGATHLNHLSSRSHTVFTVTLEQRGRAPSRLPRPAPGQLLVSKFHFVDLAGSERVLKTGSTGERLKESIQINSSLLALGNVISALGDPQRRGSHIPYRDSKITRILKDSLGGNAKTVMIACVSPSSSDFDETLNTLNYASRAQNIRNRATVNWRPEAERPPEETASGARGPPRHRSETRIIHRGRRAPGPATASAAAAMRLGAECARYRACTDAAYSLLRELQAEPGLPGAAARKVRDWLCAVEGERSALSSASGPDSGIESASVEDQAAQGAGGRKEDEGAQQLLTLQNQVARLEEENRDFLAALEDAMEQYKLQSDRLREQQEEMVELRLRLELVRP
notes: Dimer; Used in TIRF, size exclusion and BLI (HIS-tagged, anti-penta-HIS sensor); also called GFP-tagged recombinant dimeric Kif7 protein; GFP-tagged Kif7-DM; not shown: TEV-cleavable N-terminal 6xHis tag and SUMOstar tag; His tag on in the BLI assay, state in other a; GFP tag, C-terminal by the name
B5: the “fold Gli2-ZF Alexa-647 intensity on microtubules over Gli2 alone” value with Gli2-ZF-SNAP [1] is approximately 9 fold. Moreover, the “fold increase over background of Gli2 intensity on microtubules” value with Gli2-ZF-SNAP [3] worked out at 3 fold.

B6: ZF1-2 (418-497) (other, human, UniProt P10070 418-497, looked up)
Gli2 zinc-finger truncation: KEDLDRDDCKQEAEVVIYETNCHWEDCTKEYDTQEQLVHHINNEHIHGEKKEFVCRWQACTREQKPFKAQYMLVVHMRRH
notes: One of the three truncations of the group m9; also called Gli2-ZF truncation ZF1-2
For the molecule B6, in the experiment with GST-Kif7-CC (460-600aa), the binding result is listed as “no binding (tested: 125 nM)”.

B7: ZF3-5 (500-604) (other, human, UniProt P10070 500-604, looked up)
Gli2 zinc-finger truncation: EKPHKCTFEGCSKAYSRLENLKTHLRSHTGEKPYVCEHEGCNKAFSNASDRAKHQNRTHSNEKPYICKIPGCTKRYTDPSSLRKHVKTVHGPDAHVTKKQRNDVH
notes: residues 500-604; One of the three truncations of the group m9; also called Gli2-ZF truncation ZF3-5
Turning to B7, the binding result with GST-Kif7-CC (460-600aa) is recorded as “no binding (tested: 125 nM)”.

B8: GST-Kif7-SCC (481-543aa) (other)
chain: KEDEGAQQLLTLQNQVARLEEENRDFLAALEDAMEQYKLQSDRLREQQEEMVELRLRLELVRP
notes: The limits of the results section are used; also called shorter coiled-coil segment of Kif7-CC; not shown: GST tag, by the name GST-Kif7-SCC
Regarding B8, in experiment [4], the affinity, expressed as Kd, was 69 nM.
